From US10792329B2, “S100 based treatment of cardiac power failure” (Ruprecht-Karls-Universitat Heidelberg, priority 2013, dated 2020)

Experiments:
Assay type in all cases: in vivo
[1] = test system: domestic pigs with impaired cardiac function (post-ischemic heart failure); experiment: Cardiac function (LV EF %, LV+dp/dt max) in failing pig hearts
Description: (§1) This Example details the therapeutic window of viral-based re-expression and augmentation of myocardial S100A1 protein concentrations in domestic pigs with impaired cardiac function. The results for S100A1 dose-dependency in heart failure mice provide the base for determining the therapeutic window of S100A1 re-expression animal models that approximate human weight, size and cardiovascular anatomy and pathophysiology. Post-ischemic heart failure in pigs was induced by experimental myocardial infarction through temporary occlusion of the left circumflex coronary artery by percutaneous balloon occlusion. S100A1 re-expression and overexpression was achieved by retrograde intravenous application of increasing dosages of AAV6-S100A1 with S100A1 expression controlled by a cardiac specific promoter element. Analytical techniques and molecular tools used to this end are described in detail in Pleger et al. Science Translational Medicine (2011) 3, 92ra64. AAV6 was used in addition to AAV9 exploiting its greater myocardial transduction efficacy of AAV6 to achieve increasing myocardial S100A1 protein concentrations. S100A1 re-/overexpression 1.6, 6, 20 and 50 fold corresponds to intravenous AAV9-S100A1 dosages (total virus particles; tvp) of 1.5×10^13 (1.6-fold) and AAV6-S100A1 dosages of 1.5×10^11 (6-fold), 1.5×10^12 (20 fold) and 1.5×10^13 (50-fold), respectively. […]

[2] = test system: C57B/6 mice with impaired cardiac function due to experimental myocardial infarction; experiment: β-adrenergically triggered ventricular tachyarrhythmias in failing mouse hearts
Experimental: (§2) The therapeutic window of viral-based re-expression and augmentation of myocardial S100A1 protein concentrations in mice with impaired cardiac function was then analysed. The results for S100A1 dose-dependency in normal mice provides the basis for determining the therapeutic window of S100A1 re-expression in C57B/6 mice with impaired cardiac function due to experimental myocardial infarction through temporary occlusion of the left anterior coronary artery as technically described in detail in Brinks et al. Circ Res (2010) 107; 1140-1149. Techniques for intravenous application of AAV9 for gradual increases in global myocardial transgene expression are described in detail in Voelkers et al. Circ Res (2011) 108; 27-39; in Most et al. JCI (2004) 114; 1550-1563 echocardiography for cardiac function analysis. […] Total S100A1 protein amount in murine myocardium was assessed by ELISA as described in detail in Example 4. S100A1 concentrations were measured by Western Blot as described by Most et al. JCI (2004) 114; 1550-1563 using a custom-made rabbit anti-S100A1 polyclonal IgG antibody (SA 5632). […] Conversion between n-fold relative changes assessed by WB and total myocardial S100A1 protein measured by ELISA is given by the second x-axis. […]

[3] = test system: domestic pigs with impaired cardiac function (post-ischemic heart failure); experiment: β-adrenergically triggered ventricular tachyarrhythmias, large animal model; conditions: large animal example, FIG. 8
Description: as §1

[4] = test system: C57B/6 mice with impaired cardiac function due to experimental myocardial infarction; experiment: CrP/ATP ratio as surrogate for cardiac metabolism in failing mouse hearts
Experimental: as §2

[5] = test system: domestic pigs with impaired cardiac function (post-ischemic heart failure); experiment: CrP/ATP as surrogate for cardiac metabolism in failing pig myocardium; conditions: re-expression to normal and up to a 50 fold increase
Description: as §1

[6] = test system: C57B/6 mice with normal cardiac function; experiment: Cardiac performance (echocardiography, LV EF %) versus myocardial S100A1 protein level in normal mice
Experimental: The range of myocardial S100A1 protein expression that conveys cardiac performance enhancement in mice with normal cardiac function is determined by the use of AAV9-mediated human S100A1 cDNA myocardial delivery. The cardiac performance with respect to gradually increasing myocardial S100A1 protein levels was assessed in normal 6 months old C57B/6 mice with the aim to determine the efficient dose range of S100A1 protein concentrations in normal myocardium for acute and sustained enhancement of cardiac function in vivo. Techniques used are described in detail in Voelkers et al. Circ Res (2011) 108; 27-39 employing intravenous application of AAV9 for a gradual increase in global myocardial transgene expression; in Most et al. JCI (2004) 114; 1550-1563 for echocardiography for cardiac function analysis. AAV9-S100A1 and corresponding control vector generation and use of the cardiac specific promoter element to drive expression of both transgenes is described in detail in Pleger et al. Science Translational Medicine (2011) 3, 92ra64. The S100A1 overexpression (2, 4, 8, 20 and 50 fold) corresponds to intravenous AAV9-S100A1 dosages (total virus particles; tvp) 5×10^10, 1×10^11, 2×10^11, 5×10^11, 1×10^12 respectively. Total S100A1 protein amount in murine myocardium was assessed by ELISA as described in detail in Example 4. S100A1 concentrations were measured by Western Blot as described by Most et al. JCI (2004) 114; 1550-1563 using a custom-made rabbit anti-S100A1 polyclonal IgG antibody (SA 5632). 0.83 μg S100A1 protein/g wet weight myocardium equals normal S100A1 values in healthy left ventricular myocardium and has been set as 1 for relative comparison. Conversion between n-fold relative changes assessed by WB and total myocardial S100A1 protein measured by ELISA is given by the second x-axis. […] The biologically effective S100A1 dosages fall into the range between 0.83 to 41.5 μg S100A1 protein/g wet weight myocardium and peak actions relate to 3.32 μg S100A1 protein (assessed by ELISA).

[7] = test system: C57B/6 mice with impaired cardiac function due to experimental myocardial infarction; experiment: Cardiac function (LV EF %, LV+dp/dt max) in failing mouse hearts
Experimental: The therapeutic window of viral-based re-expression and augmentation of myocardial S100A1 protein concentrations in mice with impaired cardiac function was then analysed. The results for S100A1 dose-dependency in normal mice provides the basis for determining the therapeutic window of S100A1 re-expression in C57B/6 mice with impaired cardiac function due to experimental myocardial infarction through temporary occlusion of the left anterior coronary artery as technically described in detail in Brinks et al. Circ Res (2010) 107; 1140-1149. Techniques for intravenous application of AAV9 for gradual increases in global myocardial transgene expression are described in detail in Voelkers et al. Circ Res (2011) 108; 27-39; in Most et al. JCI (2004) 114; 1550-1563 echocardiography for cardiac function analysis. AAV9-S100A1 and corresponding control vector generation and use the cardiac specific promoter element to drive expression of both transgenes is described in detail in Pleger et al. Science Translational Medicine (2011) 3, 92ra64. The S100A1 re-/overexpression 0.7, 2, 4, 8, 20 and 50 fold corresponds to intravenous AAV9-S100A1 dosages (total virus particles; tvp) 2×10^10 ′, 5×10^10, 1×10^11, 2×10^11, 5×10^11, 1×10^12 respectively. Total S100A1 protein amount in murine myocardium was assessed by ELISA as described in detail in Example 4. S100A1 concentrations were measured by Western Blot as described by Most et al. JCI (2004) 114; 1550-1563 using a custom-made rabbit anti-S100A1 polyclonal IgG antibody (SA 5632). Total S100A1 protein amounts below 0.83 μg S100A1 protein/g wet weight myocardium characterizes failing left ventricular myocardium with impaired contractile function. Conversion between n-fold relative changes assessed by WB and total myocardial S100A1 protein measured by ELISA is given by the second x-axis.
Therapeutic actions peak around 4-fold S100A1 overexpression relating to a total S100A1 protein amount of 3.32 μg S100A1 protein/g wet weight myocardium. The S100A1 therapeutic window of contractile performance enhancement falls into the range between 0.25 and 41.4 μg S100A1 protein/g wet weight myocardium. Values reflect the relative range from re-expression to normal and up to 50 fold relative increase in S100A1 protein levels.

[8] = re-expression to normal and up to a 50 fold increase

B1: S100A1: EF-hand calcium-binding protein of the S100 family; human S100A1 expressed in myocardium from AAV-delivered cDNA (protein, UniProt P23297 1-94, looked up)
Protein S100-A1: MGSELETAMETLINVFHAHSGKEGDKYKLSKKELKELLQTELSGFLDAQKDVDAVDKVMKELDENGDGEVDFQEYVVLVAALTVACNNFFWENS
**Q.** Which “effect of further increase in cardiac S100A1 protein concentrations” value (from here on “effect of further increase”) ([1]; above the therapeutic window) does the source give for B1 here?
**A.** The value was “complete loss of S100A1's therapeutic actions”.

**Q.** What about the “cardiac function assessed by LV EF % and LV+dp/dt max” value [1, 8] of the same molecule?
**A.** The value was “restores and improves cardiac function”.

**Q.** What about the “effect of further increase” value ([2]; above the therapeutic window) of the same molecule?
**A.** The value was “complete loss of S100A1's therapeutic anti-arrhythmic actions”.

**Q.** And the “β-adrenergically triggered ventricular tachyarrhythmias” value [2, 8]?
**A.** Its value is “prevents β-adrenergically triggered ventricular tachyarrhythmias”.

**Q.** And the “effect of further increase” value ([3]; above the therapeutic window)?
**A.** Its value is “complete loss of S100A1's therapeutic actions”.

**Q.** What about the “β-adrenergically triggered ventricular tachyarrhythmias” value [3, 8] of the same molecule?
**A.** The value was “prevents β-adrenergically triggered ventricular tachyarrhythmias”.

**Q.** And the “effect of further increase” value ([4]; above the therapeutic window)?
**A.** Its value is “complete loss of S100A1's therapeutic anti-arrhythmic actions”.

**Q.** And the “CrP/ATP ratio as surrogate for cardiac metabolism restoration” value [4, 8]?
**A.** The value was “improves the CrP/ATP ratio”.

**Q.** And the “CrP/ATP as a surrogate for cardiac metabolism restoration” value [5]?
**A.** Its value is “improves the CrP/ATP”.

**Q.** What about the “increase of cardiac S100A1 protein concentrations at which left ventricular ejection fraction (LV EF %) peaks” value ([6]; anesthetized normal mice, compared to normal S100A1 protein levels, assessed by WB) of the same molecule?
**A.** The value was 4-6 fold.

**Q.** And the “effect of further increase” value ([6]; normal mice, above the effective range)?
**A.** The value was “loss of the S100A1-mediated contractile performance enhancement”.

**Q.** What about the “S100A1 protein amount of peak actions” value ([6]; normal mice, assessed by ELISA) of the same molecule?
**A.** The value was 3.32 μg S100A1 protein.

**Q.** And the “S100A1 overexpression at which therapeutic actions peak” value [7]?
**A.** Its value is “around 4 fold”.

**Q.** What about the “total S100A1 protein amount at which therapeutic actions peak” value [7] of the same molecule?
**A.** Its value is 3.32 μg S100A1 protein/g wet weight myocardium.

**Q.** What about the “cardiac function assessed by LV EF % and LV+dp/dt max” value ([7]; S100A1 re-expression and over-expression) of the same molecule?
**A.** Its value is “restores and improves cardiac function”.

**Q.** And the “effect of further increase” value ([7]; above the therapeutic window)?
**A.** Its value is “complete loss of S100A1's therapeutic performance enhancement”.
